Measurements from patent US20220144895A1, “DE NOVO DESIGN OF TUNABLE PH-DRIVEN CONFORMATIONAL SWITCHES” (University of Washington, priority 2019, published 2022).
Substitutions are numbered along the chain they refer to. Numbers in names are those of the source. Entries after “also recorded” stand apart in the source; their conditions may differ.

Legend:
[1] = target: the molecule itself; assay: native mass spectrometry; homotrimer
Method: Oligomeric state was assessed by size-exclusion chromatography (SEC) and native mass spectrometry (24).
Samples were buffer exchanged twice into 200 mM ammonium acetate (NH₄Ac; MilliporeSigma) using Micro Bio-Spin P-6 columns (Bio-Rad). Protein concentrations were determined by UV absorbance using a Nanodrop 2000c spectrophotometer (Thermo Fisher Scientific) and diluted to make up a 10-fold stock solution (50 μM and 16.7 μM monomer and trimer concentration, respectively). 1 μL of this solution was mixed with 9 μL 200 mM NH₄Ac/50 mM triethylammonium acetate (TEAA; MilliporeSigma), adjusted with acetic acid (Fisher Scientific) to obtain the desired final pH and incubated on ice for 30 min.

[2] = Fluorescence dequenching liposome leakage (liposome disruption) assay; format: biochemical; details: for pH-dependent liposome disruption: 2.5 μM protein with respect to monomer, SRB leakage; for liposome disruption activity at pH 4.75: pH 4.75, 2.5 μM protein
Method: Liposomes composed of DOPC (1,2-dioleoyl-sn-glycero-3-phosphocholine), DOPC with 25% cholesterol (molar ratio to DOPC), 3:1 DOPC:POPS (1-palmitoyl-2-oleoyl-sn-glycero-3-phospho-L-serine), and 3:1 DOPC:POPS with 25% cholesterol were prepared identically to a final concentration of 5 mM total lipid as previously described (32); lipids from Avanti Polar Lipids. Lipids solubilized in chloroform were dried under nitrogen gas and stored under vacuum for a minimum of 2 hours to remove residual solvent. The dried lipid film was the resuspended in Tris buffer (10 mM Tris, 150 mM NaCl, and 0.02% NaN3 pH 8.0) containing 25 mM Sulforhodamine B (SRB) fluorophore (Sigma) and subjected to 10 sequential freeze thaw cycles in liquid nitrogen. Liposomes were extruded 29 times through 100 nm pore size polycarbonate filters (Avanti Polar Lipids) and purified from free fluorophore using a PD-10 gel filtration column (GE Healthcare) into storage buffer (10 mM Tris, 150 mM NaCl, and 0.02% NaN3 pH 8.0). Liposome size and homogeneity was analyzed by dynamic light scattering (DLS) using a Dynapro Nanostar™ DLS (Wyatt Technologies). On average liposome diameter ranged from 120-130 nm with low polydispersity. Liposomes were stored at 4° C. and used within 5 days of preparation.
Liposome disruption and content leakage was analyzed by fluorescence spectroscopy as previously described (32). […] The solution was rapidly acidified to the target pH by addition of a fixed volume of acidification buffer and incubated for 20 minutes. […] SRB fluorescence is independent of pH within the ranges used here. Finally. Triton X-100 (Sigma) was added to a final concentration of 1% to fully disrupt liposomes. Liposome disruption as indicated by content leakage and SRB dequenching was normalized using the formula [Fω−F(0)]/[F(Max)−F(0)] where F(0) is the average fluorescence intensity before acidification and F(Max) is the average fluorescence intensity ater addition of Triton X-100. All measurements were collected on a Varian Cary Eclipse spectrophotometer using an excitation/emission pairing of […] and 2.5 nm slit widths at 24° C. Any data plotted together was collected using the sum batch of liposomes.

[3] = Circular dichroism: GdmCl chemical denaturation and temperature melts; details: CD at 222 nm, PBS pH 7.4 or Na2PO4-Citrate at lower pH
From the text: For low-pH experiments involving circular dichroism (CD), small-angle X-ray scattering (SAXS), and size exclusion chromatography (SEC), Na2PO4-Citrate buffer was used to ensure that a single buffer system could be used that was stable over the entire pH range to be tested. Buffers were made using established ratios of stock solutions of 0.2 M Na2PO4 and 0.1 M Citrate; final pH was adjusted using hydrochloric acid (HCl) or sodium hydroxide (NaOH) if needed.
CD wavelength scans (260 to 195 nm) and temperature melts (25 to 95° C.) were measured using a JASCO™ J-1500 or an AVIV™ model 420 CD spectrometer. Temperature melts monitored absorption signal at 222 nm and were carried out at a heating rate of 4° C./min; protein samples were at 0.25 mg/mL in either phosphate buffered saline (PBS) pH 7.4 or Na2PO4-Citrate at indicated pH values (see Buffers systems for varying pH). Guanidinium chloride (GdmCl) titrations were all performed on an AVIV 420 spectrometer with an automated titration apparatus using either PBS pH 7.4 or Na2PO4-Citrate buffers at indicated pH at room temperature, monitoring helical signal at 222 nm, using a protein concentration of 0.025 mg/mL in a 1 cm cuvette with stir bar. Each titration consisted of at least 30 evenly distributed concentration points with one minute mixing time for each step. Titrant solution consisted of the same concentration of protein in the same buffer system plus GdmCl; GdmCl concentration of starting solutions was determined by reactive index.

[4] = Native mass spectrometry of pH-induced changes in oligomeric state; format: physicochemical; details: for pH response of oligomeric state (pH-induced disassembly) / pH transition point of disassembly (pH set point, pH0): native MS; for pH response of oligomeric state (pH-induced disassembly): pH ~7 to ~3; for cooperativity of the pH-induced transition: native MS at different pH values; for pH transition point of disassembly (pH set point, pH0): evaluated from pH 7 down to pH 3; for reversibility of disassembly: pH lowered with acetic acid, then raised by ammonia or buffer exchange
Method: Samples were buffer exchanged twice into 200 mM ammonium acetate (NH4Ac; MilliporeSigma) using Micro Bio-Spin P-6 columns (Bio-Rad). Protein concentrations were determined by UV absorbance using a Nanodrop 2000c spectrophotometer (Thermo Fisher Scientific) and diluted to make up a 10-fold stock solution (50 μM and 16.7 μM monomer and trimer concentration, respectively). 1 μL of this solution was mixed with 9 μL 200 mM NH4Ac/50 mM triethylammonium acetate (TEAA; MilliporeSigma), adjusted with acetic acid (Fisher Scientific) to obtain the desired final pH and incubated on ice for 30 min. […] 5 μL samples were filled into an in-house pulled glass capillary and ionized by nESI at a monomer or a trimer concentration of 5 μM or 1.67 μM respectively. All pH titration data were acquired on an in-house modified SYNAPT® G2 HDMS (Waters Corporation) with a surface-induced dissociation (SID) device incorporated between a truncated trap traveling wave ion guide and the ion mobility cell (39). The following instrument parameters were used spray voltage 0.9-1.3 kV; sampling cone, 20 V; extraction cone, 2 V; source temperature, room temperature; trap gas flow, 4 mL/min; trap bins, 45V. The data were processed with MassLynx™ v4.1 and DriftScope™ v2.1. For relative quantification, charge state series were extracted from DriftScope™, and smoothed spectra (mean; window 20; number of smooths 20) were integrated.
Python scripts were written to generate theoretical models according Equation 1, and curve-fitting to native mass spectrometry data (FIGS. 1, 3, 5) according to Equation 2 by nonlinear least squares using curve fit from scipy.optimize. The free energy estimates for individual n, m, and l layers used in Equation 1 modeling were estimated by solving linear equations as follows: values for the free energy of folding for designs pRO-2 and variants were estimated from GdmCl denaturation experiments (FIG. 11); each of these designs have different numbers of n, m, and l layers, thus series of linear equations relating the number of each layer type to the total free energies of folding were solved to estimate dG values of the individual layers of each type.

[5] = fused at its n-terminus to a nanoparticle

B1: pRO-2.1 subunit (designed binder)
chain: SEYEIRKALEELKAALAELKRATASLRAITEELKKNPSEDALVEHNRAIVEHNAIIVEVLRIIAAVLELIVRAIK
notes: forms a homotrimer; Tag-free form
- binding result [1]: binds

B2: pRO-2.5 subunit (designed binder)
chain: B1 chain with A15S, L16T, I29S, H45N, A48L, V59N, L60N
notes: forms a homotrimer; Tag-free form; also called PDB 6MSR
- binding result [1]: binds

B3: SEQ ID NO: 39: similar to pRO2.3, Thrombin cleavage sites on each loop, destabilizing I56V mutation (protein)
chain: GSEEEIKRLLEELRKSSEELRRITKELDDLSKELRVGGSGSGSLVPRGSGSGSGSHALVEHNKLISEHNRIVVENNRIIVEILEAIARVGGSGSGSVEVERILDELRKSSEELDRVTKELKKLTEELDVGGSGSGSLVPRGSGSGSGSVEALVRHNVLITRHNDIVVKNNDIINKILKLIAEAVGGSGSGSELERILRELEESTKELRKATEELRRLSEELKVGGSGSGSLVPRGSGSGSGSHEALVRHNEAIVEHNKIVVKNNDIIVKILELITERI
- kinetics of liposome disruption relative to pRO2.3, nanoparticle fusion [2, 5]: slower kinetics
- liposome disruption relative to pRO2.3, nanoparticle fusion [2, 5]: close as well as pRO2.3

B4: SEQ ID NO: 40: as SEQ ID NO: 39 but third asparagine network mutated to all hydrophobics (protein)
chain: GSEEEIKRLLEELRKALEELRRITKELDDLSKELRVGGSGSGSLVPRGSGSGSGSHALVEHNKLISEHNRIVVEVLRIIAEILEAIARVGGSGSGSVEVERILDELRKALEELDRVTKELKKLTEELDVGGSGSGSLVPRGSGSGSGSVEALVRHNVLITRHNDIVVKVLDIIAKILKLIAEAVGGSGSGSELERILRELEEALKELRKATEELRRLSEELKVGGSGSGSLVPRGSGSGSGSHEALVRHNEAIVEHNKIVVKVLDIIAKILELITERI
- kinetics of liposome disruption relative to pRO2.3, nanoparticle fusion [2, 5]: slower kinetics
- liposome disruption better than pRO2.3, nanoparticle fusion [2, 5]: 5-10%

B5: 2L6HC3_13: previous designed homotrimer lacking buried histidines, PDB ID 5J0H (protein)
chain: GTKYELRRALEELEKALRELKKSLDELERSLEELEKNPSEDALVENNRLNVENNKIIVEVLRIIAEVLKINAKSD
- folding stability by GdmCl denaturation [3]: no change
- folding stability by GdmCl denaturation ([3]; listed as 2L6C3_13): no destabilization
- pH response of oligomeric state (pH-induced disassembly) [4]: no change in oligomeric state; also recorded: no significant pH response
- pH response of oligomeric state (pH-induced disassembly) ([4]; listed as 2L6C3_13): not pH-sensitive

B6: pRO-2.5: pRO-2 variant, SEQ ID NO: 11-12 (protein)
chain 1: MGSHHHHHHGSGSENLYFQGSEYEIRKALEELKASTAELKRATASLRASTEELKKNPSEDALVENNRLIVEHNAIIVENNRIIAAVLELIVRAIK
chain 2: B1 chain with A15S, L16T, I29S, H45N, A48L, V59N, L60N
- folding stability by GdmCl denaturation [3]: lowest stability
- cooperativity of the pH-induced transition [4]: least cooperative design tested
- pH transition point of disassembly (pH set point, pH0) [4]: ~4 pH
- reversibility of disassembly [4]: Re-association was induced

B7: pRO-3.1: pRO-3 variant, SEQ ID NO: 25-26 (protein)
chain 1: MGSHHHHHHGSGSENLYFQGSEALYELEKATRELKKATDELERATEELEKNPSEDALVEHNRLIAEHNKIIAEHNRIIAKVLK
chain 2: GSEALYELEKATRELKKATDELERATEELEKNPSEDALVEHNRLIAEHNKIIAEHNRIIAKVLK
- pH-dependent liposome disruption [2]: did not exhibit any liposome disruption
- liposome disruption activity at pH 4.75 [2]: does not
- pH response of oligomeric state (pH-induced disassembly) [4]: more pH-sensitive than design pRO-3
- reversibility of disassembly [4]: re-association of monomers into trimer

B8: pRO-3: designed homotrimer, SEQ ID NO: 23-24 (protein)
chain 1: B7 chain 1 with T31L, D39A, E40A, E46A, E49K, E66A, H74V, N75L
chain 2: B7 chain 2 with T12L, D20A, E21A, E27A, E30K, E47A, H55V, N56L
- pH-dependent liposome disruption [2]: caused pH-dependent liposome disruption
- liposome disruption activity at pH 4.75 [2]: shows liposome disruption activity

B9: pRO-2 I70N: pRO-2 mutant, SEQ ID NO: 21-22 (protein)
chain 1: B6 chain 1 with S35A, S49I, N65H, L68A, N79H, I90N
chain 2: GSEYEIRKALEELKAATAELKRATASLRAITEELKKNPSEDALVEHNRAIVEHNAIIVEHNRIIAAVLELNVRAIK
- pH-dependent liposome disruption [2]: attenuation of pH-induced liposome disruption
- pH-dependent liposome disruption ([2]; listed as pRO-2170N): attenuates liposome activity

B10: pRO-2 A54M: pRO-2 mutant, SEQ ID NO: 19-20 (protein)
chain 1: B6 chain 1 with S35A, S49I, N65H, L68A, A74M, N79H
chain 2: B9 chain 2 with A55M, N71I
- folding stability by GdmCl denaturation [3]: increases stability
- cooperativity of the pH-induced transition [4]: Neither of the mutations substantially affect the cooperativity
- pH transition point of disassembly (pH set point, pH0) [4]: decreases the transition pH
